Results on 9 molecules are retold here after patent publication US20260184766A1 (APPLIED BIOMEDICAL SCIENCE INSTITUTE, published 2026).

Test [1] addresses T1, SARS CoV-2 spike trimer protein from the parental Wuhan-Hu-1 isolate (recombinant stabilized extracellular … (SARS-CoV-2 (Wuhan-Hu-1))).
T1 construct: also called Spike protein
Description: ELISA on coated spike protein, anti-human Fc-HRP, OD450. Background: An ELISA detects its analyte on a solid surface through an enzyme-linked reagent.

The target of test [2] is T1, SARS CoV-2 spike trimer protein from …. Description: ELISA on coated recombinant stabilized spike protein, panel WT, OD 450.
Test [3] has the same target. Description: ELISA, spike coated, chimeric IgG1.

B1: R2G3 chimeric bovine-human IgG1 (ultralong CDR3) (antibody)
VH: QVQLRESGPSLVKPSQTLSLTCAASGFSLSDKAVGWVRRAPGKALEWLGSIDTGGSTGYNPGLKSRLSITKDNSKSQVSLSISSVTSEDSATYYCATVHQKTAEGDKTCPDGYEHTCGCIGGCGCKRSACIGALCCQASLGGWLSDGETYTYEFHVDTWGQGLVVTVSS
VL: QAVLNQPSSVSGSLGQRVSITCSGSSSNVGNGYVSWYQLIPGSAPRTLIYGDTSRASGVPDRFSGSRSGNTATLTISSLQAEDEADYFCASAEDSSSNAVFGSGTTLTVL
notes: also called 2G3 IgG; R2-G3 IgG
By EC50 (read off the curve) is commonly meant the concentration at which the effect is half-maximal. As for B1, the “EC50 (read off the curve)” value in test [1] was ~0.01 nM; in test [2] it was ~0.4 nM.

B2: R2B1 chimeric bovine-human IgG1 (antibody, V domains shown)
VH: QVQLRESGPSLVKPSQTLSLTCTVSGFSLSDNNVGWVRQAPGKALEWLGVMHNDGNKGYNPALKSRLSITKDSSKSQVSLSLSSVTSEDTATYYCTRDNARCDSWTYDSCDTWYRNSWHVDAWGQGLLVTVSS
VL: QAVLNQPSSVSGSLGQRVSITCSGSSSNVGNGYVSWYQLIPGSAPRTLIYGDTSRASGVPDRFSGSRSGNTATLTISSLQAEDEADYFCASAEDSSSNAVFGSGTTLTVL
One may read the EC50 as the concentration needed to bring the measured effect to its halfway point. Regarding B2, the EC50 in test [3] turned out to be 0.37 nM.

B3: R2C3 (R5C1) chimeric bovine-human IgG1 (ultralong CDR3) (antibody)
VH: QVQLRESGPSLVKPSQTLSLTCTASGFSLSDKPVGWVRQAPGKPLEWLGSIDTAENTGYNPGLKSRLSITKDNSKSQVSLSLSSVTTEDSATYYCATVHQKTRKEKSCPDGYLYSSNTGRGYDCGVWTCRRVGGEFCSATGDWTSPSEEDFYEFYVDTWGQGAPVTVSS
VL: QAVLNQPSSVSGSLGQRVSITCSGSSSNVGNGYVSWYQLIPGSAPRTLIYGDTSRASGVPDRFSGSRSGNTATLTISSLQAEDEADYFCASAEDSSSNAVFGSGTTLTVL
notes: also called SA-R2C3
Consider B3, for which, in test [2], the “EC50 (read off the curve)” value is ~0.3 nM. Moreover, the EC50 in test [3] worked out at 0.39 nM.

B4: R2D6 chimeric bovine-human IgG1 (antibody, V domains shown)
VH: QVQLRESGPSLVKPSQTLSLTCTTSGFSLSSYAVGWVRQAPGKALEWVGDIDYVGNTDYNPALKSRLSITKDNSKSQVSLVVSSVTAEDAATYYCAKYSGAYAYAACNYYGWRCAWESYIDAWGQGLLVTVSS
VL: QAVLNQPSSVSGSLGQRVSITCSGSSSNVGNGYVSWYQLIPGSAPRTLIYGDTSRASGVPDRFSGSRSGNTATLTISSLQAEDEADYFCASAEDSSSNAVFGSGTTLTVL
As for B4, the EC50 in test [3] worked out at 0.41 nM.

B5: RBD F4 chimeric bovine-human IgG1 (antibody, V domains shown)
VH: QVQLRESGPSLVKPSQTLSLTCTVSGFSLSSNGVVWVRQAPGKALEWLGDICSTGGTSFNPALKSRLSIAKDNSKSQVSLSVRSVTPEDTATYYCARSRGYDCYANVDALDYVDAWGQGLLVTVSS
VL: QAVLNQPSSVSGSLGQRVSITCSGSSSNVGNGYVSWYQLIPGSAPRTLIYGDTSRASGVPDRFSGSRSGNTATLTISSLQAEDEADYFCASAEDSSSNAVFGSGTTLTVL
Turning to B5, in test [3], the EC50 was found to be 0.03 nM.

B6: R2F12 chimeric bovine-human IgG1 (ultralong CDR3) (antibody)
VH: QVQLRESGPSLVKPSQTLSLTCTVSGFSLSDKAVGWVRRAPGKALEWLGSIDTGGMTGYNPGLKSRLSITKDNSKSQVSLSVNSVTTEDSATYYCATVDQKTKNACPDDFDYRCSCIGGCGCARKGCVGPLCCRSDLGGYLTDSPAYIYEWYIDLWGQGLLVTVSS
VL: QAVLNQPSSVSGSLGQRVSITCSGSSSNVGNGYVSWYQLIPGSAPRTLIYGDTSRASGVPDRFSGSRSGNTATLTISSLQAEDEADYFCASAEDSSSNAVFGSGTTLTVL
notes: also called RR2F12
In the case of B6, the “EC50 (read off the curve)” value in test [1] was ~0.02 nM; in test [2] it was ~0.3 nM. The EC50 in test [3] was found to be 0.05 nM.

B7: RBD C6 chimeric bovine-human IgG1 (antibody, V domains shown)
VH: QVQLRESGPSLVKPSQTLSLTCTVSGFSLSSNGVVWVRQAPGRPLEWLGDICSNGGTSFNPALKSRLSIAKDNSESQVSLTVRSVTPEDTATYYCARSRGYDCYAYVYALDTVDAWGQGLLVTVSS
VL: QAVLNQPSSVSGSLGQRVSITCSGSSSNVGNGYVSWYQLIPGSAPRTLIYGDTSRASGVPDRFSGSRSGNTATLTISSLQAEDEADYFCASAEDSSSNAVFGSGTTLTVL
Turning to B7, the EC50 in test [3] is 0.03 nM.

B8: RBD A2 chimeric bovine-human IgG1 (antibody, V domains shown)
VH: QVQLRESGPSLVKPLQILSLTCTVSGFSLSSNGVVWVRQAPGKALEWLGDICSTGGTSFNPALKSRLSIAKDNSKSQVSLSVRSVTPEDTATYYCARSRGYDCYANVDALDYVDAWGQGLLVTVSS
VL: QAVLNQPSSVSGSLGQRVSITCSGSSSNVGNGYVSWYQLIPGSAPRTLIYGDTSRASGVPDRFSGSRSGNTATLTISSLQAEDEADYFCASAEDSSSNAVFGSGTTLTVL
Consider B8, for which the EC50 in test [3] was found to be 0.024 nM.

B9: SR3A3 chimeric bovine-human IgG1 (ultralong CDR3) (antibody)
VH: QVQLRESGPSLVKPSQTLSLTCTISGFSLSSYAVLWVRQAPGKPLEWLGSIDTAENTGYNPGLKSRLSITKDNSKSQVSLSVSSVTTEDSATYYCATVHQKTRKEKNCPDGYIYSSNITSGFDCGVWICRRVGSAFCSRTGDYTSPTELDIYEFYVEGWGQGVPVTVSS
VL: QAVLNQPSSVSGSLGQRVSITCSGSSSNVGNGYVSWYQLIPGSAPRTLIYGDTSRASGVPDRFSGSRSGNTATLTISSLQAEDEADYFCASAEDSSSNAVFGSGTTLTVL
As to B9, the EC50 in test [3] was found to be 0.037 nM.
